Assay [1] deals with T1, Tau peptide KDNIKHVSGGGSVQI (human).
T1 construct: Variant peptide of the substitution scan
T1 peptide: KDNIKHVSGGGSVQI
Briefly: epitope substitution scanning on peptide chip. The source says: FIG. 4 illustrates the results of the murine 7G6 antibody epitope substitution scanning of the peptide sequence […] (SEQ ID NO: 26), corresponding to amino acids 294 to 308 of the human 2N4R Tau protein. Each amino acid position of the peptide was replaced by every naturally occurring amino acid possible, printed onto a glass chip, and probed with the ms7G6 antibody. FIG. 4 illustrates the results for select peptides (SEQ ID NOs 38-78, respectively). While ms7G6 antibody binding allows some variation in the second position (valine) of SEQ ID NO: 79, antibody binding is completely dependent on the proline residue of SEQ ID NO: 79. No binding of antibody 7G6 to […] (SEQ ID NO: 59) was observed. The latter is the sequence present in Tau P301S mutant protein.
The ms7G6 anti-Tau antibody was diluted to a concentration of 1 μg/mL in PBS (pH 7.4) containing 0.05% Tween 20 and 10% Rockland blocking buffer (MB-070). The diluted antibody was incubated on the chip for 16 hours at 4° C. with shaking at 140 rpm. Primary antibody was removed and the chip was washed in PBS (pH 7.4)/0.05% Tween 20. […] Fluorescence images were acquired on the LI-COR Odyssey™ Imaging System and the microarray data was finally analyzed using the PepSlide™ Analyser software.

Assay [2] deals with T2, Human Tau 2N4R, wild type, recombinant full length (human, UniProt P10636 2-758).
T2 construct: Full length 2N4R isoform; monomer in SPR and ELISA; heparin-induced aggregates or seeds in the functional assays; also called Tau441; Tau-441
Briefly: SPR BIAcore, biotinylated mAb on streptavidin (CAP) chip, single cycle, 1:1 Langmuir. As to the method: 400 μg of each antibody was diluted to 2 mg/mL and buffer-exchanged into 0.1 M sodium bicarbonate, pH 8.3 using 0.5 mL Zeba™ 40 kDa MWCO desalting columns (Thermo). NHS-PEG4-biotin, prepared immediately before use by dissolving in water to a 20 mM final stock concentration, was added to antibodies at a 5:1 molar ratio (biotin:MAb) and conjugated for 1 hr at room temperature. Excess biotin was removed by two sequential buffer exchanges into 1×DPBS using 0.5 mL Zeba™ 40 kDa MWCO desalting columns. For the BIAcore™ assay, antibodies were diluted to 2 μg/mL in PBS-P+/0.2% BSA (the same preparation used for the running buffer), centrifuged at 14,000 g for 5 min at room temperature, and the supernatant transferred to a new tube. Injection time was subsequently determined for each antibody to achieve a capture level of ˜225 RU.
Biotinylated humanized and mouse mAbs were captured on a streptavidin-coated chip and kₐ, kd, and KD were determined for binding to Tau (Table 11). […] The affinity of 7G6-HCzu8-LCzu6, 7G6-HCzu24-LCzu15, 7G6-HCzu24-LCzu18, 7G6-HCzu25-LCzu15, and 7G6-HCzu25-LCzu18 were all similar.
Background: SPR reads the build-up and loss of mass on a sensor chip optically.

Assay [3] concerns the target T3, HVPGG site of Tau (15-mer array peptides containing HVPGG) (human).
T3 peptide: HVPGG
The assay can be described thus: peptide microarray; HVPGG site of the fourth repeat region against HKPGG (repeat region 3). As to the method: (§1) The diluted antibody was incubated on the chip for 16 hours at 4° C. with shaking at 140 rpm. Primary antibody was removed and the chip was washed in PBS (pH 7.4)/0.05% Tween 20. Wash buffer was removed and goat anti-mouse IgG (H+L) DyLight™680 (1:5000) and an anti-HA tag DyLight™ 800 (1:2000) in the same buffer as the primary antibody was then incubated for 45 minutes at room temperature on the chip. Detection antibody was removed and the chip was washed once again as previously. Fluorescence images were acquired on the LI-COR Odyssey™ Imaging System and the microarray data was finally analyzed using the PepSlide™ Analyser software.

Assay [4] concerns the target T3, HVPGG site of Tau (15-mer array …). The assay can be described thus: peptide microarray; HVPGG site of the fourth repeat region against HQPGG (repeat region 1). As to the method:
as §1

The target is the same in assay [5]. Briefly: peptide microarray; HVPGG site of the second repeat region against HKPGG (repeat region 3). As to the method:
as §1

For assay [6] the target is unchanged. The assay can be described thus: peptide microarray; HVPGG site of the second repeat region against HQPGG (repeat region 1). Here is the method: as §1

T2 sequence (P10636 other isoform, or with tags, fused parts or gaps limits assumed): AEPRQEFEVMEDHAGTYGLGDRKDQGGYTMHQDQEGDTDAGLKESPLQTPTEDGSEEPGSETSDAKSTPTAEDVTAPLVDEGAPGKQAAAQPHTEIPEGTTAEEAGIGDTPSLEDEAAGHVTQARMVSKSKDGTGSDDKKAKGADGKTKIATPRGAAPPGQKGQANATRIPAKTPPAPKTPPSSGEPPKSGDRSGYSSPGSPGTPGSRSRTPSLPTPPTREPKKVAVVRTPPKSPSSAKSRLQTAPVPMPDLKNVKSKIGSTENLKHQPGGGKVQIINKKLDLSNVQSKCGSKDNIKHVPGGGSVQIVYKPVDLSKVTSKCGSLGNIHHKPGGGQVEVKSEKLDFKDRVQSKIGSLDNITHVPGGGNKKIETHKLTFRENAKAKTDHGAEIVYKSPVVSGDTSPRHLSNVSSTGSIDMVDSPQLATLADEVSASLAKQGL

B1: murine 7G6 antibody (antibody, mouse IgG2b, V domains shown)
VH: QVQLLQPGAELVKPGASVIMSCKASGYTFTTYWITWVKQRPGQGLEWIGDIYPGSSICNYNEKFKSKATLTVDTSSSTAYMQLNSLTSEDSAVYYCAREDGYDAWFAYWGQGTLVTVSA
VL: DVLMTQTPLSLPVSLGDQASISCRSSQSILHSNGNTYLEWYLQKPGQSPKLLICKVSNRFSGVPDRFSGSGSGTDFTLKISRVEAEDLGVYYCFQGSHVPFTFGSGTKLEIK
notes: Mouse IgG2b, kappa, purified from hybridoma; also called ms7G6; mouse 7G6
Take B1: in assay [1], the binding result was “no binding (tested: 1 µg/mL)”. Also, in assay [2], the dissociation constant (Kd) turned out to be 0.0636 nM. In assay [2], the koff is 0.000195 s⁻¹. Further, the kon in assay [2] was found to be 3.11e+06 M⁻¹ s⁻¹. Moreover, the “fold preference in binding (average signal intensities)” value in assay [3] worked out at 33 fold; in assay [4], 35 fold; in assay [5] it was 38 fold; in assay [6], 41 fold.

In general, Kd refers to the constant that tells how readily two partners part at equilibrium. Usually koff stands for a measure of how fast the partners let go of each other. What is called kon is the second-order rate constant of association.

The record behind these values is patent US20190112365A1 (EISAI R AND D MANAGEMENT, published 2019).
